Laboratory results: the supplement of paper PMC7877785
± gives the uncertainty stated by the source.

Test: self-splicing fitness, log relative to wild type (ln ratio); higher = more splicing; Tetrahymena group I intron in knt gene, E. coli kanamycin selection, DiMSum; sequences stand for … in CUCUCU…GGAGGGAAAAGUUAUCAGGCAUGCACCUGGUAGCUAGUCUUUAAACCAAUAGAUUGCAUCGGUUUAAAAGGCAAGACCGUCAAAUUGCGGGAAAGGGGUCAACAGCCGUUCAGUACCAAGUCUCAGGGGAAACUUUGAGAUGGCCUUGCAAAGGGUAUGGUAAUAAGCUGACGGACAUGGUCCUAACCACGCAGCCAAGUCCUAAGUCAACAGAUCUUCUGUUGAUAUGGAUGCAGUUCACAGACUAAAUGUCGGUCGGGGAAGAUGUAUUCUUCUCAUAAGAUAUAGUCGGACCUCUCCUUAAUGGGAGCUAGCGGAUGAAGUGAUGCAACACUGGAGCCGCUGGGAACUAAUUUGUAUGCGAAAGUAUAUUGAUUAGUUUUGGAGUACUCGUGGUCG
Method in brief: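 Six replicate transformations of E. coli BL21(DE3) with a pET-22b(+) library were grown overnight at 37°C or 30°C. The library randomised all eight P1ex-region intron nucleotides, the intron lying in the knt kanamycin-resistance gene, and plates were LB agar with or without 25 μg/mL kanamycin plus 100 μg/mL carbenicillin, 50 μM IPTG and 0.2% rhamnose. Pooled colonies were amplicon-sequenced on an Illumina HiSeq 2500, and fitness is the DiMSum error-weighted combination of wild-type-normalised replicate fold changes, kanamycin versus none.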

UAACAGCAAUAUUACGAAAC
self-splicing fitness (ln) (30 °C): -4.62 ± 0.38
self-splicing fitness (ln) (37 °C): -2.75 ± 0.36

UAACAGCAAUAUUACGAACU
self-splicing fitness (ln) (30 °C): -0.722 ± 0.11
self-splicing fitness (ln) (37 °C): -0.651 ± 0.15

UAACAGCAAUAUUACGACCA
self-splicing fitness (ln) (30 °C): -0.808 ± 0.08
self-splicing fitness (ln) (37 °C): 0.224 ± 0.11

UAACAGCAAUAUUACGACUA
self-splicing fitness (ln) (30 °C): -0.142 ± 0.049
self-splicing fitness (ln) (37 °C): -0.212 ± 0.057

UAACAGCAAUAUUACGAUCG
self-splicing fitness (ln) (30 °C): -0.667 ± 0.07
self-splicing fitness (ln) (37 °C): -0.00548 ± 0.098

UAACAGCAAUAUUACGAUUC
self-splicing fitness (ln) (30 °C): -1.68 ± 0.1
self-splicing fitness (ln) (37 °C): -1.01 ± 0.12

UAACAGCAAUAUUACGCACU
self-splicing fitness (ln) (30 °C): -1.26 ± 0.06
self-splicing fitness (ln) (37 °C): 0.231 ± 0.087

UAACAGCAAUAUUACGCAGA
self-splicing fitness (ln) (30 °C): -2.78 ± 0.14
self-splicing fitness (ln) (37 °C): -1.47 ± 0.087

UAACAGCAAUAUUACGCAUC
self-splicing fitness (ln) (30 °C): -4.63 ± 0.22
self-splicing fitness (ln) (37 °C): -2.51 ± 0.17

UAACAGCAAUAUUACGCCAU
self-splicing fitness (ln) (30 °C): -3.93 ± 0.22
self-splicing fitness (ln) (37 °C): -2.11 ± 0.17

UAACAGCAAUAUUACGCCGG
self-splicing fitness (ln) (30 °C): -0.84 ± 0.067
self-splicing fitness (ln) (37 °C): -0.697 ± 0.091

UAACAGCAAUAUUACGCCUU
self-splicing fitness (ln) (30 °C): -1.48 ± 0.074
self-splicing fitness (ln) (37 °C): -0.968 ± 0.094

UAACAGCAAUAUUACGCGAC
self-splicing fitness (ln) (30 °C): -3.97 ± 0.29
self-splicing fitness (ln) (37 °C): -2.05 ± 0.16

UAACAGCAAUAUUACGCGAG
self-splicing fitness (ln) (30 °C): -0.783 ± 0.052
self-splicing fitness (ln) (37 °C): -0.508 ± 0.066

UAACAGCAAUAUUACGCGAU
self-splicing fitness (ln) (30 °C): -3.97 ± 0.32
self-splicing fitness (ln) (37 °C): -2.36 ± 0.23

UAACAGCAAUAUUACGCUUU
self-splicing fitness (ln) (30 °C): -3.43 ± 0.14
self-splicing fitness (ln) (37 °C): -1.82 ± 0.13

UAACAGCAAUAUUACGGAUA
self-splicing fitness (ln) (30 °C): -0.969 ± 0.088
self-splicing fitness (ln) (37 °C): -0.486 ± 0.1

UAACAGCAAUAUUACGGCGA
self-splicing fitness (ln) (30 °C): -0.267 ± 0.077
self-splicing fitness (ln) (37 °C): -0.198 ± 0.08

UAACAGCAAUAUUACGGCUC
self-splicing fitness (ln) (30 °C): -1.77 ± 0.1
self-splicing fitness (ln) (37 °C): -0.836 ± 0.14

UAACAGCAAUAUUACGGGAG
self-splicing fitness (ln) (30 °C): -2.3 ± 0.1
self-splicing fitness (ln) (37 °C): -1.62 ± 0.096

UAACAGCAAUAUUACGGGGG
self-splicing fitness (ln) (30 °C): -3.25 ± 0.27
self-splicing fitness (ln) (37 °C): -1.9 ± 0.17

UAACAGCAAUAUUACGGUCU
self-splicing fitness (ln) (30 °C): -1.5 ± 0.068
self-splicing fitness (ln) (37 °C): -0.783 ± 0.075

UAACAGCAAUAUUACGUGGU
self-splicing fitness (ln) (30 °C): -2.87 ± 0.12
self-splicing fitness (ln) (37 °C): -2.93 ± 0.2

UAACAGCAAUAUUACGUUAA
self-splicing fitness (ln) (30 °C): -3.25 ± 0.2
self-splicing fitness (ln) (37 °C): -1.6 ± 0.12

UAAGAGCAAUAUUACGAAAC
self-splicing fitness (ln) (37 °C): -2.99 ± 0.37

UAAGAGCAAUAUUACGACAG
self-splicing fitness (ln) (30 °C): -3.17 ± 0.25
self-splicing fitness (ln) (37 °C): -2.34 ± 0.23

UAAGAGCAAUAUUACGACUU
self-splicing fitness (ln) (30 °C): -2.79 ± 0.18
self-splicing fitness (ln) (37 °C): -0.528 ± 0.15

UAAGAGCAAUAUUACGAGGU
self-splicing fitness (ln) (30 °C): -3.48 ± 0.23
self-splicing fitness (ln) (37 °C): -2.56 ± 0.27

UAAGAGCAAUAUUACGAUUA
self-splicing fitness (ln) (30 °C): -0.804 ± 0.1
self-splicing fitness (ln) (37 °C): 0.2 ± 0.1

UAAGAGCAAUAUUACGCCCA
self-splicing fitness (ln) (30 °C): -2.62 ± 0.26
self-splicing fitness (ln) (37 °C): -2.09 ± 0.41

UAAGAGCAAUAUUACGCCCU
self-splicing fitness (ln) (30 °C): -3.1 ± 0.31
self-splicing fitness (ln) (37 °C): -2.01 ± 0.41

UAAGAGCAAUAUUACGCCGG
self-splicing fitness (ln) (30 °C): -2.97 ± 0.31
self-splicing fitness (ln) (37 °C): -1.72 ± 0.26

UAAGAGCAAUAUUACGCGGU
self-splicing fitness (ln) (30 °C): -3.3 ± 0.3
self-splicing fitness (ln) (37 °C): -2.15 ± 0.34

UAAGAGCAAUAUUACGGAUC
self-splicing fitness (ln) (30 °C): -3.68 ± 0.46
self-splicing fitness (ln) (37 °C): -1.64 ± 0.31

UAAGAGCAAUAUUACGGCAA
self-splicing fitness (ln) (30 °C): -2.23 ± 0.18
self-splicing fitness (ln) (37 °C): -2.03 ± 0.14

UAAGAGCAAUAUUACGGCAU
self-splicing fitness (ln) (30 °C): -2.3 ± 0.39
self-splicing fitness (ln) (37 °C): -1 ± 0.3

UAAGAGCAAUAUUACGGGAG
self-splicing fitness (ln) (30 °C): -3.33 ± 0.24
self-splicing fitness (ln) (37 °C): -1.83 ± 0.19

UAAGAGCAAUAUUACGGGGU
self-splicing fitness (ln) (30 °C): -2.67 ± 0.19
self-splicing fitness (ln) (37 °C): -1.44 ± 0.49

UAAGAGCAAUAUUACGUAAU
self-splicing fitness (ln) (30 °C): -3.14 ± 0.15
self-splicing fitness (ln) (37 °C): -3.17 ± 0.29

UAAGAGCAAUAUUACGUACG
self-splicing fitness (ln) (30 °C): -1.42 ± 0.16
self-splicing fitness (ln) (37 °C): -1.73 ± 0.17

UAAGAGCAAUAUUACGUACU
self-splicing fitness (ln) (30 °C): -2.79 ± 0.25
self-splicing fitness (ln) (37 °C): -0.993 ± 0.2

UAAGAGCAAUAUUACGUCGA
self-splicing fitness (ln) (30 °C): -3.95 ± 0.3
self-splicing fitness (ln) (37 °C): -1.74 ± 0.17

UAAGAGCAAUAUUACGUUCC
self-splicing fitness (ln) (37 °C): -1.98 ± 0.39

UAAUAGCAAUAUUACGAAGC
self-splicing fitness (ln) (37 °C): -1.83 ± 0.33

UAAUAGCAAUAUUACGACGU
self-splicing fitness (ln) (30 °C): -3.74 ± 0.33
self-splicing fitness (ln) (37 °C): -1.76 ± 0.18

UAAUAGCAAUAUUACGAUAU
self-splicing fitness (ln) (30 °C): -3.99 ± 0.47
self-splicing fitness (ln) (37 °C): -1.52 ± 0.25

UAAUAGCAAUAUUACGAUCA
self-splicing fitness (ln) (30 °C): -0.744 ± 0.085
self-splicing fitness (ln) (37 °C): 0.387 ± 0.1

UAAUAGCAAUAUUACGCAAC
self-splicing fitness (ln) (30 °C): -2.64 ± 0.4
self-splicing fitness (ln) (37 °C): -1.73 ± 0.37

UAAUAGCAAUAUUACGCGCU
self-splicing fitness (ln) (30 °C): 0.173 ± 0.2
self-splicing fitness (ln) (37 °C): -0.565 ± 0.18
